Experimental data as given in paper PMC3040192.

Experiments:
Assay in all cases: mass spectrometry
Details in all cases: 37 °C (72 h incubation), 50 mM NaCl plus 50 mM buffer, 50 mM MES (pH 5.0-7.5) or 50 mM HEPES (pH 8.0-9.0), folded
His114 = His114 (UniProt position 114, KLYLTHIDAEV)
His124 = His124 (UniProt position 124, VEGDTHFPDYE)
His141 = His141 (UniProt position 141, VFSEFHDADAQ)
His149 = His149 (UniProt position 149, DAQNSHSYCFE)
His45 = His45 (UniProt position 45, VIMGRHTWESI)
[1] = Ternary complex with folate and NADP+ (DHFR-folate-NADP+; five-fold molar excess of each ligand added during preparation)
[2] = Ternary complex with methotrexate and NADPH (DHFR-MTX-NADPH; five-fold molar excess of each ligand added during preparation)
[3] = Binary complex with methotrexate (DHFR-MTX; five-fold molar excess of MTX added during preparation)

Question: “Dihydrofolate reductase (DHFR) (Escherichia coli)” was tested. Which pKa (His114; [1]) did it give?
Answer: 7.17 (±0.16)

Question: What about the pKa (His114; [2]) of the same substance?
Answer: 6.99 (±0.10)

Question: What about the pKa (His114; apo-DHFR (no ligand)) of the same substance?
Answer: 6.84 (±0.20)

Question: What about the pKa (His124; [3]) of the same substance?
Answer: 7.02 (±0.06)

Question: And the pKa (His124; [1])?
Answer: 7.61 (±0.19)

Question: What about the pKa (His124; [2]) of the same substance?
Answer: 7.17 (±0.20)

Question: And the pKa (His124; apo-DHFR (no ligand))?
Answer: 7.60 (±0.03)

Question: And the pKa (His141; [3])?
Answer: 8.12 (±0.14)

Question: What about the pKa (His141; [1]) of the same substance?
Answer: 8.14 (±0.11)

Question: And the pKa (His141; [2])?
Answer: 8.29 (±0.10)

Question: What about the pKa (His141; apo-DHFR (no ligand)) of the same substance?
Answer: 8.04 (±0.08)

Question: And the pKa (His149; [3])?
Answer: 6.13 (±0.13)

Question: And the pKa (His149; [1])?
Answer: 6.84 (±0.17)

Question: And the pKa (His149; [2])?
Answer: 6.17 (±0.10)

Question: And the pKa (His149; apo-DHFR (no ligand))?
Answer: 6.51 (±0.04)

Question: And the pKa (His45; [3])?
Answer: 7.15 (±0.04)

Question: And the pKa (His45; [1])?
Answer: 7.30 (±0.07)

Question: And the pKa (His45; [2])?
Answer: 7.43 (±0.03)

Question: And the pKa (His45; apo-DHFR (no ligand))?
Answer: 6.99 (±0.07)
